Measured values published in the Human Domainome abundance scans (Beltran et al. 2025).
± gives the uncertainty stated by the source.

B1: Connector enhancer of kinase suppressor of ras 2, residues 9 to 71; numbered along this chain, Q8WXI2 (parent)
chain: SKWSPSQVVDWMKGLDDCLQQYIKNFEREKISGDQLLRITHQELEDLGVSRIGHQELILEAVD

Variants of: B1
Assay: abundance fitness (aPCA) (normalised: wild type 0, dead -1); higher = more abundant; growth selection in yeast, the domain comes from the species named
Conditions: Homo sapiens

| Variant | abundance fitness |
| --- | --- |
| W11D | -0.65 ± 0.055 |
| W11R | -0.716 ± 0.024 |
| W11F | -0.333 ± 0.048 |
| W11Y | -0.425 ± 0.047 |
| W11N | -0.674 ± 0.086 |
| W11S | -0.782 ± 0.036 |
| R38L | -0.377 ± 0.029 |
| R38F | -0.416 ± 0.049 |
| R38W | -0.549 ± 0.038 |
| R38H | -0.061 ± 0.043 |
| R38K | -0.002 ± 0.033 |
| E60G | -0.096 ± 0.031 |
| E60R | -0.072 ± 0.025 |
| E60I | -0.531 ± 0.056 |
| E60P | -0.905 ± 0.073 |
| E60N | -0.012 ± 0.04 |
| Q21P | 0.038 ± 0.035 |
| Q21G | -0.032 ± 0.03 |
| Q21N | -0.4 ± 0.041 |
| Q21L | -0.275 ± 0.025 |
| Q21H | -0.257 ± 0.04 |
| Q21S | -0.118 ± 0.024 |
| Q21K | -0.204 ± 0.039 |
| Q21I | -0.088 ± 0.043 |

| Variant | abundance fitness |
| --- | --- |
| Q21R | -0.144 ± 0.026 |
| H41Y | -0.075 ± 0.049 |
| H41E | -0.076 ± 0.035 |
| H41N | -0.097 ± 0.04 |
| H41C | -0.157 ± 0.054 |
| H41K | 0.029 ± 0.034 |
| R51A | 0.031 ± 0.026 |
| R51L | -0.015 ± 0.026 |
| R51T | 0.063 ± 0.027 |
| R51P | -0.021 ± 0.036 |
| R51W | -0.115 ± 0.036 |
| R51I | 0.03 ± 0.03 |
| E27R | -0.173 ± 0.023 |
| E27G | -0.514 ± 0.026 |
| E27N | -0.535 ± 0.047 |
| E27A | -0.075 ± 0.029 |
| E27Q | -0.101 ± 0.038 |
| E27L | -0.207 ± 0.03 |
| V62D | -0.822 ± 0.088 |
| V62P | -0.779 ± 0.077 |
| V62E | -0.63 ± 0.11 |
| V62C | -0.411 ± 0.047 |
| V62L | -0.258 ± 0.037 |
| V62N | -0.815 ± 0.057 |

| Variant | abundance fitness |
| --- | --- |
| V62R | -0.061 ± 0.028 |
| V62T | -0.58 ± 0.047 |
| V62H | -1.04 ± 0.11 |
| V62S | -0.741 ± 0.048 |
| V62I | -0.047 ± 0.044 |
| F26M | -0.709 ± 0.062 |
| F26H | -0.929 ± 0.081 |
| F26P | -0.592 ± 0.063 |
| F26S | -0.779 ± 0.025 |
| F26I | -0.356 ± 0.12 |
| Q20Y | -0.204 ± 0.042 |
| Q20I | -0.247 ± 0.063 |
| Q20E | -0.31 ± 0.043 |
| Q20K | -0.148 ± 0.025 |
| Q20S | -0.148 ± 0.024 |
| Q20P | -0.805 ± 0.051 |
| Q20L | -0.121 ± 0.023 |
| I23S | -0.247 ± 0.029 |
| I23H | -0.393 ± 0.082 |
| I23C | -0.014 ± 0.035 |
| I23A | 0.006 ± 0.027 |
| I23Q | -0.378 ± 0.044 |
| I23Y | -0.447 ± 0.053 |
| I23P | -0.673 ± 0.059 |

| Variant | abundance fitness |
| --- | --- |
| D17F | -0.181 ± 0.076 |
| L37F | -0.239 ± 0.052 |
| L37V | -0.078 ± 0.025 |
| L37S | -0.072 ± 0.027 |
| L37H | -0.158 ± 0.071 |
| P5Q | -0.315 ± 0.058 |
| P5A | -0.055 ± 0.04 |
| P5N | 0.005 ± 0.041 |
| P5D | -0.275 ± 0.049 |
| P5S | -0.007 ± 0.025 |
| S50P | -0.391 ± 0.088 |
| S50R | -0.05 ± 0.076 |
| S50D | -0.172 ± 0.1 |
| S50Y | -0.05 ± 0.17 |
| S50E | 0.024 ± 0.12 |
| V8S | -0.749 ± 0.04 |
| V8R | -0.872 ± 0.06 |
| V8F | -0.861 ± 0.051 |
| V8D | -0.783 ± 0.085 |
| V8G | -0.851 ± 0.049 |
| V8N | -0.973 ± 0.069 |
| W3L | -0.236 ± 0.048 |
| W3F | -0.563 ± 0.067 |
| W3I | -0.053 ± 0.28 |

| Variant | abundance fitness |
| --- | --- |
| W3K | -0.409 ± 0.064 |
| L36D | -0.847 ± 0.048 |
| L36I | -0.325 ± 0.041 |
| L36E | -0.769 ± 0.039 |
| L36K | -0.775 ± 0.075 |
| L36F | -0.715 ± 0.091 |
| L36V | -0.713 ± 0.044 |
| L36G | -0.845 ± 0.052 |
| L36Q | -0.898 ± 0.087 |
| N25P | -0.307 ± 0.033 |
| N25K | -0.258 ± 0.039 |
| N25Y | -0.036 ± 0.084 |
| N25A | -0.007 ± 0.033 |
| N25Q | -0.133 ± 0.033 |
| D46S | -0.037 ± 0.024 |
| D46H | 0.008 ± 0.039 |
| D46T | -0.041 ± 0.031 |
| D46M | -0.042 ± 0.04 |
| D46W | -0.192 ± 0.034 |
| L15H | -0.781 ± 0.067 |
| L15N | -0.512 ± 0.051 |
| T40A | -0.499 ± 0.034 |
| T40Q | -0.437 ± 0.038 |
| T40D | -0.327 ± 0.091 |

| Variant | abundance fitness |
| --- | --- |
| T40N | -0.201 ± 0.052 |
| E56A | -0.138 ± 0.042 |
| E56P | -0.728 ± 0.063 |
| E56M | -0.157 ± 0.042 |
| E56S | -0.17 ± 0.032 |
| E56G | -0.307 ± 0.031 |
| E56L | -0.158 ± 0.029 |
| E56T | -0.077 ± 0.033 |
| K2W | -0.291 ± 0.079 |
| K2T | 0.015 ± 0.03 |
| K2F | -0.025 ± 0.018 |
| K2N | -0.049 ± 0.034 |
| K2I | -0.09 ± 0.027 |
| K2L | -0.041 ± 0.038 |
| K2S | -0.003 ± 0.025 |
| R28F | -0.453 ± 0.1 |
| R28I | -0.099 ± 0.063 |
| R28W | -0.638 ± 0.044 |
| R28E | -0.1 ± 0.043 |
| R28K | -0.063 ± 0.033 |
| S1P | -0.653 ± 0.068 |
| S1L | -0.154 ± 0.036 |
| S1W | -0.22 ± 0.045 |
| S1F | -0.13 ± 0.058 |

| Variant | abundance fitness |
| --- | --- |
| S1E | -0.283 ± 0.31 |
| S1K | 0.015 ± 0.039 |
| G48A | -0.844 ± 0.053 |
| G48P | -0.704 ± 0.11 |
| G48S | -0.66 ± 0.036 |
| G48M | -0.871 ± 0.091 |
| G48K | -0.552 ± 0.058 |
| S4V | -0.496 ± 0.025 |
| S4C | -0.183 ± 0.047 |
| S4M | -0.273 ± 0.041 |
| S4Q | -0.676 ± 0.056 |
| S4I | -0.567 ± 0.088 |
| S4F | -0.656 ± 0.049 |
| L47H | -0.785 ± 0.08 |
| L47F | -0.612 ± 0.072 |
| L47I | 0.003 ± 0.064 |
| I31A | -0.914 ± 0.043 |
| I52M | -0.086 ± 0.04 |
| I52H | -0.047 ± 0.06 |
| I52P | 0.038 ± 0.034 |
| I52R | 0.065 ± 0.024 |
| I52T | 0.017 ± 0.035 |
| I52Y | -0.067 ± 0.041 |
